Measurements as given in paper PMC7042059 (FEBS letters, 2019).
Several values for one entry are separate records, joined by “and”; a condition that tells them apart may be missing. Equal values may be shown once.

Target: the molecule itself
Assay: SEC

B1: PKM2 R399E (enzyme)
chain: not shown
- stoichiometry N: 4 and 2
